Source: patent US20210347852A1 (Regeneron, published 2021)

Columns and labels:
Human VEGF165 (REGN110) [1] = biological target: T1, Human VEGF165 (REGN110) (human, UniProt P15692-4 27-191); assay: SPR (Biacore 3000), 25C, trap captured by REGN18, hVEGF165 injected
T1 construct: also called hVEGF165; REGN110-L9
Experimental: (§1) Equilibrium dissociation constants (KD values) for human VEGF₁₆₅ binding to various purified VEGF mini-trap constructs were determined using a real-time surface plasmon resonance biosensor using a Biacore 3000 instrument. All binding studies were performed in 10 mM HEPES, 150 mM NaCl, 3 mM EDTA, and 0.05% v/v Surfactant Tween-20; pH 7.4 (HBS-ET) running buffer at 25° C. The Biacore sensor surface was first derivatized by amine coupling with a monoclonal mouse anti-VEGFR1 antibody (REGN18) to capture VEGF mini-trap constructs. Binding studies were performed on the following human VEGF reagents: human VEGF₁₆₅. […] Dissociation of bound VEGF₁₆₅ reagent from VEGF mini-trap constructs was monitored for 60 minutes in HBS-ET running buffer. Kinetic association (ka) and dissociation (kd) rate constants were determined by fitting the real-time sensorgrams to a 1:1 binding model using Scrubber 2.0c curve fitting software. Binding dissociation equilibrium constants (KD) and dissociative half-lives (t1/2) were calculated from the kinetic rate constants as: […]

[2] = biological target: T2, Human VEGF121 (R&D SYSTEMS Cat #4644-VS) (human, UniProt P15692-9 27-147); assay: cell-based or functional assay
T2 sequence (looked up): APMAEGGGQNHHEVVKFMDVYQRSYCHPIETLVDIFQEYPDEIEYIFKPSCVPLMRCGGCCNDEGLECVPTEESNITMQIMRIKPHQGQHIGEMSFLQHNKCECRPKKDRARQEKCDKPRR

Human VEGF165 (REGN110) [3] = biological target: T1, Human VEGF165 (REGN110); assay: cell-based or functional assay
[4] = biological target: T2, Human VEGF121 (R&D SYSTEMS Cat #4644-VS); assay: cell-based or functional assay; remark: listed apart in the source
Human VEGF165 (REGN110) [5] = biological target: T1, Human VEGF165 (REGN110); assay: SPR, 25C, trap captured by REGN18, hVEGF165 injected
Experimental: as §1

[6] = biological target: T2, Human VEGF121 (R&D SYSTEMS Cat #4644-VS); assay: cell-based or functional assay; remark: listed apart in the source
Human VEGF165 (REGN110) [7] = biological target: T1, Human VEGF165 (REGN110); assay: cell-based or functional assay; remark: listed apart in the source
[8] = biological target: T2, Human VEGF121 (R&D SYSTEMS Cat #4644-VS); assay: cell-based or functional assay; remark: listed apart in the source

2.5 nM hVEGF165 Bound (RU) (Human VEGF165 (REGN110) [1])	Kd (Human VEGF165 (REGN110) [1]) [pM]	koff (Human VEGF165 (REGN110) [1]) [s⁻¹]	kon (Human VEGF165 (REGN110) [1]) [M⁻¹ s⁻¹]	t½ (Human VEGF165 (REGN110) [1]) [h]	IC50, Inhibition of 20 pM VEGF121, VEGFR1 assay (luciferase) [2] [M]	IC50, Inhibition of 20 pM VEGF165, VEGFR1 assay (luciferase) (Human VEGF165 (REGN110) [3]) [M]	IC50 (read off the curve); NFkB-luciferase reporter (RLU), 293/D9/VEGFR1 cells, VEGF121 constant 40 pM [A] [4] [M]	2 nM VEGF165 Bound (RU) (Human VEGF165 (REGN110) [5])	Kd (Human VEGF165 (REGN110) [5]) [pM]	koff (Human VEGF165 (REGN110) [5]) [s⁻¹]	kon (Human VEGF165 (REGN110) [5]) [M⁻¹ s⁻¹]	t½ (Human VEGF165 (REGN110) [5]) [h]	IC50, VEGFR1 40 pM R&D VEGF121 (luciferase) [6] [M]	IC50, VEGFR1 40 pM VEGF165 (REGN110) (luciferase) (Human VEGF165 (REGN110) [7]) [M]	IC50 (read off the curve); NFkB-luciferase reporter (RLU), 293/D9/VEGFR1 cells, VEGF121 constant 40 pM [E] [8] [M]	Binder
9.37	1.9	1.95e-05	1.01e+07	9.85	2.09e-11	3.36e-11	~2e-11	–	–	–	–	–	–	–	–	REGN7483, VEGF mini-trap hIgG1 Fc (other, Enzymatically cleaved from aflibercept; also called REGN7483F; VEGF mini-trap derived from REGN3) SDTGRPFVEMYSEIPEIIHMTEGRELVIPCRVTSPNITVTLKKFPLDTLIPDGKRIIWDSRKGFIISNATYKEIGLLTCEATVNGHLYKTNYLTHRQTNTIIDVVLSPSHGIELSVGEKLVLNCTARTELNVGIDFNWEYPSSKHQHKKLVNRDLKTQSGSEMKKFLSTLTIDGVTRSDQGLYTCAASSGLMTKKNSTFVRVHEKDKTHTCPPCPAPELLG
4.2	≤ 1.37	≤ 1e-05	7.3e+06	≥ 19.2	2.02e-11	–	~2e-11	–	–	–	–	–	–	–	–	REGN10117, VEGF Trap hIgG2 Fc w/4 Cys (Fc fusion) SDTGRPFVEMYSEIPEIIHMTEGRELVIPCRVTSPNITVTLKKFPLDTLIPDGKRIIWDSRKGFIISNATYKEIGLLTCEATVNGHLYKTNYLTHRQTNTIIDVVLSPSHGIELSVGEKLVLNCTARTELNVGIDFNWEYPSSKHQHKKLVNRDLKTQSGSEMKKFLSTLTIDGVTRSDQGLYTCAASSGLMTKKNSTFVRVHEKERKCCVECPPCPAPPVAGPSVFLFPPKPKDTLMISRTPEVTCVVVDVSHEDPEVQFNWYVDGVEVHNAKTKPREEQFNSTFRVVSVLTVVHQDWLNGKEYKCKVSNKGLPAPIEKTISKTKGQPREPQVYTLPPSREEMTKNQVSLTCLVKGFYPSDIAVEWESNGQPENNYKTTPPMLDSDGSFFLYSKLTVDKSRWQQGNVFSCSVMHEALHNHYTQKSLSLSPGK
10.5	1.89	1.44e-05	7.62e+06	13.3	1.68e-11	–	–	20.4	1.08	≤ 1e-05	9.3e+06	≥ 19.2	1.74e-11	1.06e-11	~2e-11	REGN10105, VEGF mini-trap hIgG2 Fc w/2Cys (other, IdeS cleaved from the IgG2 trap; they are kept as one molecule here; also called REGN10105-L3) SDTGRPFVEMYSEIPEIIHMTEGRELVIPCRVTSPNITVTLKKFPLDTLIPDGKRIIWDSRKGFIISNATYKEIGLLTCEATVNGHLYKTNYLTHRQTNTIIDVVLSPSHGIELSVGEKLVLNCTARTELNVGIDFNWEYPSSKHQHKKLVNRDLKTQSGSEMKKFLSTLTIDGVTRSDQGLYTCAASSGLMTKKNSTFVRVHEKVECPPCPAPPVA
